Laboratory results as given in patent US20080207523.

System: Tenascin-C (human)
Assay: competition

Substance | EC50 (two TTA1-MAG2 joined via bis-maleimide peptide linker P5 (bAla-Ser-Ser-Ser-Dpr-Met-Cys-Ser-Ser-Ser-Lys), competition binding assay against the lead compound) | IC50 (MAG2 conjugate, monomer comparator)
(TTA1-MAG2)2P5 aptamer dimer (22A) | 3.6 nM | 
TTA1-MAG2 aptamer monomer (2A, lead compound) |  | 5.6 nM
